Experimental data taken from the DeepSol protein solubility set.

assay: soluble on expression in E. coli; label from the status in PepcDB or PDB records

Sequence	soluble on expression in E. coli
MAHHHHHHMHVSSAAYTRAYEWQRALNSCTGDFSSSLARCLPLRALCRRPNNVPRTLTHTSKHPHPLLLSHPRLPLSHAARTRAPPPSRCSRSTLMSVPYEEKAFPPL	not soluble
MAHHHHHHMITDLLFKSQIIYNKKDILCARYILFYQHICKRGYKEAAPKVFNKKSSHTSRWIQRQISDRYVLRAKNDNYRSRAAYKLIELDNKYLFLKKNKIILDIGCYPGSWCQVILERTKNYKNKIIGIDKKIMDPIPNVYFIQGEIGKDNMNNIKNINYIDNMNNNSVDYKLKEILQDKKIDIILSDAAVPCIGNKIDDHLNSCELTLSITHFMEQYINIGGTYIVKMYLGSQTNNLKTYLKGMFQLVHTTKPKASRNESREIYLVCKNFLGRKKITEDVQIKGSFSSKEGYY	not soluble
MAHHHHHHMIVLLRKNNLKNTLRLFPLGCNNKLVFMRGYINEQTKGPIEKKTTDNNEKMLLNKTLEDVKVSKENSCNALFDECLEELYRMKKKVDKESVEYDNSPIIEELNREELKITRNIFERINKKKKHVSNLSYKDIYIDPYWNPFKDVDNLKQEILYEFNEYSKMASIVELKKQRRAIKKSLKEQYKLYNPYSEEYNKHFNLNMDNDVKEQQMECHDKDEKYWNPSFNKRKILNIKSPFIWRYTHLLHHFIGENGLILPRKINMTTRKQQIQIFKSICIARRMALYPYDKKPEKDDLIPLMDPLQFLLDELIHRYIQLNDLRAQAIIKVMINRYPSLNYYKYFFYESKKEKDKNEKTAQNEQEENVSEKKEPFSQMLQKYKKNYYENFYKY	not soluble
MAHHHHHHMKGHIFYDVTEKGTPPAEYFVSSTGWGMSVVSPPNVGNCDEWETQVKAERIIVNCPDEMDVKAMCAWMERDGTTDGQAECWKMVEERMDKVGPIPRHIFDANKFVAHSAAIEDALDGINSRDGERHFTHRGVRLWYSGDPPQKVVSVVRARGEFGAGGFLNAAISVCLGRRIAHYFGGRDE	not soluble
MAHHHHHHMKKKNNNKLHYLDSKGKLYTSGLRSDTKEKYGEIPSSNKNHNLIEKYNELQSLLSKEEEKYDFVKNELGDLQKQKDLLKWHLCNNIKKLSMKRSDYKFKTETKSKLESKLKSLKDMNKIHKFEHDTLEELVHKMEQELETKMYIKNDIENIFNECINKKDEYLKDITQERISVFKERKKRQNQLQKLLLIMKQENNKNYNINYLKKYESNLMNEINSYKNYKDFETKIAMDLIDDHSLNDLYVT	not soluble
MAHHHHHHMKQECNVCYFNLPDPESTLGPYDNELNYFTWGPGFEYEPEPQRKPLSIEESFENSEESEESVADIQQLEEKVDESDVRIYFNEKSSGGKISIDNASYNARKLGLAPSSIDEKKIKELYGDNLTYEQYLEYLSICVHDKDNVEELIKMFAHFDNNCTGYLTKSQMKNILTTWGDALTDQEAIDALNAFSSEDNIDYKLFCEDILQ	soluble
MAHHHHHHMKRDRDDSVVGTPNGKWDVSPHGTLGVEAKEFERNAVRRYVFGLVHLKNEGPKANAVDVSESIVRSFNERFRRIVKIGQGSFGEVYIVFDTVTQTHLTMKRMQLLRGAGRRVMGLCNTTSREMNLLRVLKHVNIVELFDYHVVPDGTLIMLMPVIAYDLVSLIRLWRNGGPRGEPSAGRMPLPTIKCIFRQLLTGLAYLHKERVIHRDLKPTNVMINEKGVVKIIDFGWARFCPARWRGPMTGPPCPVAYRPPEVLLGGEHAVNYDASVDLWCCGCILFEMLSGGKMFINARSEAEAVAGITDWLGSPSSKSTLYYGHSAASLIRFKQNRPSRLAHRCELLHIDRDSVDMLDKMLQLEPKWRMPAEELLRHRWFSSAPVACEPHEISLPEHNMYRWLDSKRPS	soluble
MAHHHHHHMKSHNLDLIKNQNFDKNHNFINYSELYKKYKEKYNVKSFNKLPVSTYTYPRYSKITNFDELKTELIYEKEINEIEEEYDDDDEQNNINNYDGNIEILFPMINEKENEDIKKKKTDNIYKSEKKSLRQRIYDGEVMFYEDYIEQLAVKDYEHFFKKPYEIKRKDEGGKNYFYGKKLEMNKEEDIYRKFYGFDDAYFLNKLQLKNKSPQKEKNKEEKQKKRNEEKILERQCGKKLSYEDKKFILNIIEENQLQDNSIYKYYMQNKCIFDKNLPEFKKKELLCGYIPDIILPANVRKVKHPKNCGVPLSSLHIYAQFIHELFKCPYIYNAIDVELGKYWKTNENELLNIMKSEKIKKGYKKDIYTATKEQLEKSSAKLKNLLKNDEVSDDTRKKFTINFKMPKKEKTNLVVSKGRYII	soluble
MAHHHHHHMLFVDLLNGVNVNYKRKVPICKRPTRSAEYLSNQPLHANRNVEQTSSKNGEASITNHEDEKDENILQQYIYTLSHLTIFDVDRDKSTPLNIALLLKACLASHNYIKNVEIFTSNVKNKEICSFIYERRNDFDAFFKLHVMKYIDFFGNPQIVETLKSSVDNKEMYQRELEIFNQIDGETKLRKDLLEDILFECTRLNKIIQYSLAVNNFNLFSPTVLLKLFTYFKHYGVYYSIFLNNIKKVKYYYQTKDIREEDKRKIEKIVDHYLLTLDRFNHMYEAGHVTL	not soluble
MAHHHHHHMLGKLGLRTEAYPFDFSRVTLDGLMHFIRNGFAEGFYPPGPLPYRPECVGPWVLFRGQHTAFAHFDLNDPHVQAHFQVKMRRFDAVLNSPERPVTFFRTVTARYPQQELALALDLEEAVARRNPSLDFRIVFMVHDQGLRANAVQLAPLSPRVTLWTLQYRGLPGDTLFDRTHTAYRTVMMHSVAESNWPAVNVGVATPPPATVAPAEARDFESGALRCDGAIRTDDVPLSDLTVDRFPWRSHDNLALIDGVASVGGTCAGIGSTKMLEDASAALQVEGRVRRKCRYCGDATYHAAGRPFRTERPFTDEEDQLVLIHLYQILTGGDKVAAVEKLAHEMRRGTYEVICRIQYLTNSSTKLMDSIDPASPSDS	not soluble
MAHHHHHHMLLLLFRPVYQCTVALLCRSLPAYHPCLLSTDSPPPFFTVFCHLDDALHAMRRRSCSLRRLEVHTKRRAHAIMAELANPNPTVFEPTHDPLKGRTDAERAAEDDEDTEDPIDAWEVFEMIRRIRDPEHPNSLEQLKVVEPSLITVDWKKRHIRVLFTPTVPHCSLTTLIGLSIRLQLERSLPEYTKVDIYVTPGTHEQEAQVNKQLNDKERVAAALENRNLLNVVESCINEFDE	not soluble
MAHHHHHHMLRRVPLRLARRKHGQTAWSPNNTSSGAAPTNGITAQEALQIAYRPMPPANTVEYEEDFGPNMMIHREFVSSRHRTRMASDISALAYSDVELARARQQLAGVMNRERRGALVGSGGEAGDRVLFNSDVDETTREVKSARFLFNEQRMRFCDRFQTFFRERIERWAAGDAGAGEDDHPYFSLMEACAVLHGCDTVDAREVYYRRFLGLDLDTLEAEEAALRARAADAAEVGARLTRGEAGAGGGALVAAAAGGAGGAGSATDVVQDIIDALPPLFPQPAAAEVGEASEAVADAPPARARAAGAGELPPATAAAPAHLAEDAAPLYKAYLAHARGESPVGSYDVTTLGAHAAHAERRRWRSLMDKIAAEDYHELTAAELEDAHVLNGQLHTVKFFDLKVGDTVREIVQLLERETGSSASGDRDVPVEMSPTHPERRV	not soluble
MAHHHHHHMLSASSSSSELETADDASVEHAALAYERVRREHALQRYLKAREAYEVACIARERRQLVVQSHNHTLRLLGQVVCDVKAVVDGTLKEGLSVRESTATAAEMLLASSCYKRAERGLVTLLAHEGRQHEVLRAATSPATETSRIPQVFSSGSRAEKPVASSPAKHMLRPLLLLCEWRLDYATLLCRQRLPLFSELARAQRVVSNSRESAREARGRMSAPTTPVVQRCQVQVAEARASLAKARAFQRSLKDRLHQLHQMLSRSAPVHAESGVFVDAGVAEEIQARLRQELAVGHVTLLRILCESLSGAFDERGRLTAL	not soluble
MAHHHHHHMLTSENPAERAGQAGQAIRPPPSPVPDGTRPSDSSRGDSSVSPLSTTGISSSSALDAPIVQSTQPSEKGLRSETISLGTALPNEQPKERSESKAKQGSSTSEEVAESPDDSGDAVEKEKKGDVGPKATTSLSSTTSNPPVTQTTPRASSAEPPPTETELQTGEETSTENVTITKRNNTTTPGDSDGSTAVSHTTSPLLLLLVVVECAAAAAVVAA	soluble
MAHHHHHHMLYLKEIELGNYYICNLDDYPREYCVVDYDPNKVIKFLCPIVHNEGEEMKTYDSSYCFRYKGIKDRLIISNNEEQIYTTLPGIILENQILYDRYNLGIYLMPLKLEEDMSIVCVCDTKKEYKGITPYIKINIKKSNNLLGADSADQHIKGCDFGNNQGEHQFLTNSQSYEENLVCEIHANPGDIVGINCINYNEGDLQNYEVKLEPSNCFSTVSFSLYTLSFVKMNINNIFPDARYYPESSAFPKDPNFKKFSTTSYLWIPAHVPEDFLFFCSCRYAQGEGVAIYHVGSSAAAVEAV	not soluble
MAHHHHHHMMNMFYRRDFPVSFRYVNDHSKFIGAGSGRGNRKRGMAPNNYTEYLRIMANEANGTGQDTSRVLFIDSEVNYRFTPVQTIVLDAYEPLTRRQQRRLVQQQYSNPFGDVSSRNARRYGAAAARARKMTVRHRAVVSAQHLQDAVDMQQKYTDFLIAEQEGVQLPPEMRNGVQDGHGGDLCHFSKRHPQRSAPSSSSPPHPQQGGSTRGRVSGPLSTPGPSSLADTESDKTPPDGNKDIKEEQQQLSMSCALAVNLEDYSLVALAEMIAEMSASETSVADYIKTEPLIEKVEVPFHGKANYLAPENCDNIDLLNWDEIQVLEKAHGTGVPEMVEETEDHKDFFR	not soluble
MAHHHHHHMMRIPPLVVCGPSGVGKGTLIKRLLGEFPSLFRFSISCTTRKKREKEMDGVDYYFVDKEDFEQKIKEEQFLEYDNYANNFYGTLKSEYDIAAGENKICLLEMNINGVKQLKESKHIEDGIYIFVKPPSIEILLKRLKNRNTENPEEIKKRMQELTREMDEADKVGFNYIIVNDDLARTYGELRKYLLGSYPQLGGA	soluble
MAHHHHHHMMRSRRPLSASRASARASAASRPQPHTTVSSDDASRSQTTAPIYRPLRYVGRGSFGVVLLAEEVHTGDRVAIKRVHYDARLHNREVAILNSVLVDNPRHQQPSSTAVDSNDASRRPGGAARASCTSFLSASSSSHTVEDVHLWPGTHHPNIVELLDFYVTYDTASSEQALGADMVGAGGAGAGFEFLPSYHPAAHRYPLSGGSGAASASAPPVPAPLAAFAYLEMVMSYLPMDLCYVKRYYFRFHDMPTIATSSSSSPIASPEQAPTELSSGELPEGTADRLPASPKHAGTGCNGNNSSRHSSTSSSGGDVCNHLPLRWVKVVLFQLARALAFMHVRHVCHRDLKPANVLVDPDTGRVQVCDFGSAKQITRPAEEKNVSYICSRYYRAPELLFGALHYGCAVDMWSFGCIAAELLRESGKPLFRGCTSIDQMAELFKVLGAPSKREMYAMNPQCAEALLRTRAMHRHQSLDNDPHSGSGGGVRQDRSCGLELEVDYQAEEEDDVELRGGAQQGGYDVDSHGEFLRDALDDGISSQASASPGMATASPPSSSTKDPRDYKTTFSAPPSTAATAMLDDVAPTPFEEYYDVLKVRAIPWRRLFPVDTPTEAVALVASLLCYAPDKRLTAAELVEHPFFDDLFSAADAQLATVDRDAATAVASGATMSPSEDDGVASAALRLPNGRLMPLSMFQVTEVERGLYTDAFLTRMARQAELVAAVMKQDEYP	not soluble
MAHHHHHHMNCPIVLKTLEQNKNFCVINPEAMDSCIYISLDYFKENLITSCTHKKPLPHTCNVKNEISGIKNLKTEQIELNEFIQEYYKRLIINDDEIMWNVCYFRKSKEFLTILLLEFLKSMLTVLNKYNGKCIFKKTEYLVNCGHHITHRIWIQMFYEYGFESVDADTKKNMKNYPIIQQEDGNNRTLYLTIADHYKWDA	not soluble
MAHHHHHHMNFEDDDDIVIPGEFLGLQAEYINGNNTYLLKDEIRSSILGQKIINKNNDKKTIISVYNLKPPSLYLPKIGDIVICKVQRVSFHMIYCYILSSHNIFTKNALKGFILKSDIHINEGELGDNFICFKQGDIIKAKVLSIGQYSSYKLSTVGSELGVIAAFNQKGEILRPVAWNLVLNINDMTFERRKASNDFSLLL	not soluble
